For data set [1] the following is noted: Bell et al. 2000; cited from earlier work.
The nature of data set [2]: Spinach-based RNA sensor fluorescence in response to SAM. It counts as biochemical.
Procedure: Dose-response curves for each sensor in response to the target metabolite were determined by measuring the increase in fluorescence as a function of increasing target concentration in the presence of a fixed concentration of RNA sensor (10-50 nM) and a fixed concentration of fluorophore (10 μM). Curves were determined using a nonlinear regression analysis in Prism software and matched by least squares fitting to a standard dose-response model for 1:1 complexation.
The optimal sensors were chosen based on their low fluorescence in the absence of metabolite and the relative increase in fluorescence upon binding to the metabolite.
The nature of data set [3]: Sensor activation rate, SAM sensor. It counts as biochemical. Conditions: 1 mM SAM, 37° C. The method, then: A solution of RNA sensor (1 μM) and DFHBI (10 μM) was incubated with continuous stirring at 37° C. in a buffer containing 40 mM HEPES pH 7.4, 125 mM KCl and 1 mM MgCl2. The target metabolite (1 mM) was then rapidly added to the stirring solutions and fluorescence emission was recorded over a 15 min period under continuous illumination at 37° C. using the following instrumental parameters: excitation wavelength, 460 nm; emission wavelength, 500 nm; increment of data point collection, 0.05 s; slit widths, 10 nm. The fluorescence increase was then plotted against exposure time and normalized to the maximum intensity of each fluorophore.

The test system of data set [4] is endogenous SAM levels in living E. coli cells. As to the kind of experiment: Live cell imaging of SAM accumulation with the SAM sensor. Set-up: average increase in SAM levels upon treatment with methionine: dose or concentration left out as unconfirmed. It counts as cell-based. How it is done: Expression of the SAM aptamer and intracellular imaging was performed as described above for the ADP sensor: BL21-A Star E. coli cells (Invitrogen) were transformed with 40 ng of plasmid DNA expressing the tRNA-sensor chimeras in pET28c under the control of a T7 promoter. Cells were plated, grown overnight and single colonies were picked for inoculation in LB-Kan. At OD600=0.4, 1 mM of IPTG was added to the culture and shaking was continued at 37° C. for more 2 hours. 100 μL of culture was then removed, spun down to pellet the culture, and resuspended in 2 mL of pH 6.0 M9 minimal media. A 200 μl aliquot of resuspended culture was then plated on PLL-coated 24-well glass-bottom dishes (MatTek) and incubated for 45 minutes at 37° C. Adherent cells were washed twice and then incubated with 200 μM DFHBI in pH 6.0 M9 minimal media for 2 hours at 37° C. Cells were then treated with methionine alone or methionine with inhibitors by adding 2 μl of a 100× stock of the compound to a final concentration of 50 μg/ml for L-methionine, 25 μM for adenosine periodate, and 2.5 μM for MT-DADMe-ImmA. Live fluorescence images were taken with a CoolSnap HQ2 CCD camera through a 60× oil objective mounted on a Nikon TE2000 microscope and analyzed with the NIS-Elements software. The filter set used was a sputter coated filter cube with excitation filter 470/40, dichroic mirror 495 (long pass) and emission filter 525/50 (Chroma Technology).
Cells transformed with SAM sensors were grown overnight in LB-Kan. Cultures were then diluted to OD600=0.1 in 200 mL LB-Kan and grown to OD600=0.4. Cells were then induced for 2 hours with 1 mM IPTG at 37° C. with constant shaking. The entire culture was centrifuged for 5 min at 1,000×g, pellets were resuspended and washed once with M9 media and then resuspended in […] of M9 media containing 200 μM DFHBI and divided into two samples. Methionine (50 μg/ml) or vehicle was then added to either sample and cultures were incubated between 32-37° C. 25 ml aliquots were removed from methionine- and vehicle-treated sample at each time point, centrifuged for 5 min at 1,000×g, and flash frozen in liquid nitrogen. Cells were thawed on ice and lysed by resuspending the pellet in 300 μl of cold 4% perchloric acid. Insoluble material was then pelleted by spinning at 1,000×g for 5 min and the supernatant was transferred to a dialysis spin column with a 10,000 molecular weight cut off (Amicon) and spun at 10,000×g for 10 min at 4° C. A portion of the flow through (50 μl) was then injected on a Zorbax C8 column (Agilent) on an Agilent 1100 HPLC. Samples were loaded and eluted for 15 min with an aqueous buffer containing 3.6% acetonitrile, 40 mM ammonium phosphate, and 5 mM sodium 1-heptanesulfonate which was brought to pH 5.0 with hydrochloric acid. After each sample was eluted, the column was washed with a gradient of 3.6-25% acetonitrile for 30 min prior to the next samples being injected. SAM standards were used to calibrate SAM levels measured using this assay.
Population analysis was carried out using NIS-Elements software. Individual cells in a captured field were manually traced as Region of Interests (ROIs) and tracked through the different time points of image capture. Fluorescence intensity was then calculated by dividing the total fluorescence by the area for each ROI, which gives the mean intensity per unit area. Fold increase in fluorescence over time is calculated as the ratio of mean intensity at a desired time point and at time zero. Values in fold increase in fluorescence over time are plotted as frequency distributions or further used in statistical analyses.

A further data set has as its target streptavidin (Streptomyces avidinii, UniProt P22629). As to the kind of experiment: Spinach-based protein sensor fluorescence activation. It counts as biochemical. Conditions: micromolar concentrations of protein, DFHBI included. An excerpt:
Using the same strategy from Example 5-7, a streptavidin aptamer (Srisawat and Engelke, “Streptavidin Aptamers: Affinity Tags for the Study of RNAs and Ribonucleoproteins, RNA 7:632-41 (2001), which is hereby incorporated by reference in its entirety) was fused to Spinach, and the transducer domain was optimized. The resulting RNA molecule is illustrated in FIG. 16A. The sensor was separately exposed to solutions containing micromolar concentrations of streptavidin, ovalalbumin, BSA, and lysozyme. […] Thus, the approach is generalizable not just to small molecules, but also proteins.

The nature of data set [5]: Photobleaching curves on glass slides under continuous illumination. It counts as physicochemical. Conditions: immobilized on glass slides, 130 W mercury lamp, 45 min. The method, then:
Photobleaching experiments were performed on fluorescein, EGFP and 24-2-DFHBI complexes immobilized on chemically functionalized glass slides (MicroSurfaces). To immobilized fluorescein, fluorescein cadaverine (Sigma-Aldrich) was reacted in 40 mM HEPES pH 8.0 with NHS-activated glass slides for 2 h at 25° C. Slides were then incubated in 100 mM Tris pH 8.0 to quench any unreacted NHS-activated sites. […] To immobilize 24-2-DFHBI, a 3′ amine modified 21-nt DNA oligo (sequence: 5′-GGTTGTAAGTTTTAGGTTGCC-NH2-3′, SEQ ID NO: 45; Integrated DNA Technologies) was reacted with NHS-activated glass slides. Unreacted NHS-activated sites were blocked as above. 24-2 RNA was then in vitro synthesized with a 5′ overhang complimentary to the immobilized DNA oligo. Purified 24-2 RNA was denatured at 65° C. and incubated with the slide at 25° C. for 20 min to allow hybridization to the immobilized oligonucleotide. […] Images were captured every 10 s with a CoolSnap HQ2 CCD camera through a 10× air objective mounted on a Nikon TE2000 microscope and analyzed with the NIS-Elements software. […] Total fluorescence was then plotted against exposure time and normalized to the maximum intensity of each fluorophore.

Data set [6] is described as follows: Emission and excitation of aptamer-DFAN complex. Format: physicochemical. The note with it: aptamer with DFAN.

Values joined by “and” are separate entries in the source; they are usually repeats but may differ in a detail not shown here. Equal entries are not always repeated. “Also recorded” adds a separate entry of the source. Bounds are passed on as bounds.

streptavidin, sequence (P22629 25-183, species assumed): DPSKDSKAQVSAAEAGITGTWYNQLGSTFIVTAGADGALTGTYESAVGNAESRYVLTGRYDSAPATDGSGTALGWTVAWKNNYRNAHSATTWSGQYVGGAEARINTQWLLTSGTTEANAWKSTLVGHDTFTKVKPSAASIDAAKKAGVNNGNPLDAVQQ

Usually pKa stands for the pH at which an ionisable group is half protonated. As for `CC1=NC(=Cc2ccc(O)cc2)C(=O)N1C` [HBI, 4-(4-hydroxybenzylidene)-1,2-dimethyl-imidazol-5-one], in data set [1], the pKa is reported as 8.1.

B1: SAM sensor: Spinach-based turn-on RNA sensor for SAM, transducer stem 1 (nucleic acid)
chain: GACGCGACUGAAUGAAAUGGUGAAGGACGGGUCCACGAAAGGAUGGCGGAAACGCCAGAUGCCUUGUAACCGAAAGGGUUGUUGAGUAGAGUGUGAGCUCCGUAACUAGUCGCGUC
modifications: chemistry not given here
What is called EC50 is the midpoint of the concentration-response curve. In the case of B1, the “increase in fluorescence in the presence of SAM” value in data set [2] (10 μM DFHBI, 1 mM SAM, versus no SAM) is 25 fold and 24 fold. The “molecular discrimination: fluorescence with methionine or adenosine” value in data set [2] (1 mM) is listed as “negligibly fluorescent; also recorded: negligible signal above background”. In data set [2] (1 mM SAH), the “molecular discrimination: fluorescence with SAH” value is reported as “only minimal fluorescence; also recorded: negligible signal”. Moreover, the EC50 in data set [2] (dose-response, 10 μM fluorophore, read-out: half-maximal fluorescence (EC50), SAM) worked out at 120 µM. Besides, in data set [3] (1 μM RNA sensor, 10 μM DFHBI), the “time to maximal fluorescence after SAM addition” value is given as at most 10 min. For the same molecule, the “time to increase in fluorescence after SAM addition” value in data set [3] is listed as “less than 10 s”. The “average increase in sensor fluorescence in methionine-treated cells” value in data set [4] (50 μg/ml methionine, 3 hr) is reported as “over 6 fold”. In data set [4] (methionine, 180 min (FIG. 9D)), the “average increase in SAM levels upon treatment with methionine” value is listed as “six-fold”.

B2: Spinach-streptavidin sensor: Spinach-based streptavidin sensor RNA molecule (nucleic acid)
chain: GACGCGACUGAAUGAAAUGGUGAAGGACGGGUCCACGACCGACCAGAAUCAUGCAAGUGCGUAAGAUAGUCGCGGGCCGGGGUUGUUGAGUAGAGUGUGAGCUCCGUAACUAGUCGCGUC
modifications: listed as RNA, chemistry not given here
notes: Spinach-based streptavidin sensor RNA molecule
As for B2, in the data set with streptavidin, the “fluorescence activation by BSA, ovalbumin or lysozyme” value is given as “fail to increase fluorescence above background levels” and the “fluorescence activation by streptavidin” value was “specific fluorescence activation occurs only in solutions that contained streptavidin”.

B3: Spinach: first generation derivative of 24-2, DFHBI-binding RNA aptamer (nucleic acid)
chain 1: GACGCGACUGAAUGAAAUGGUGAAGGACGGGUCCAGGUGUGGCUGCUUCGGCAGUGCAGCUUGUUGAGUAGAGUGUGAGCUCCGUAACUAGUCGCGUC
chain 2: GACGCAACUGAAUGAAAUGGUGAAGGACGGGUCCAGGUGUGGCUGCUUCGGCAGUGCAGCUUGUUGAGUAGAGUGUGAGCUCCGUAACUAGUCGCGUC
modifications: listed as RNA, chemistry not given here
On to B3, for which, in data set [5], the “photobleaching during continuous illumination” value was “remarkable resistance to photobleaching”.

B4: SEQ ID NO: 59: RNA aptamer listed for fluorophore DFAN (nucleic acid)
chain: GGGAGACGCAACUGAAUGAAAUACUUGGGAUGGUAAUGGCCUGGAGCUGCUUCGGCAGACCCGUGCAAGGACGUGGGAGAGGGGUCCGUAACUAGUCGCGUCAC
modifications: listed as RNA, chemistry not given here
As for B4, in data set [6], the Em result is “Em = 550 nm” and the Ex entry is listed as “Ex = 480 nm”.

The record behind these values is patent US10444224B2, “Method for RNA detection and quantification” (Cornell University, priority 2011, dated 2019).
